The data set in a line: protein stability index of a GFP-peptide fusion (GPS, HEK-293T) (PSI 1-6); higher = more stable. The conditions noted are these: c terminus: a fixed tail appended.

± gives the standard deviation.
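Also: 24-mer peptide tiles fused after GFP, lentivirally expressed, FACS-sorted into six equal bins by GFP/DsRed ratio, decoded by Illumina sequencing, PSI is the read-weighted mean bin number.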

As to DEDLRRQMQDDEQKTRLLEDSVSR [PALM], the protein stability index is, setting by setting: (treatment: DMSO) 5.46 ± 0.32; (treatment: MLN4924 1 uM, 8 h) 5.31 ± 0.38. Take DEEEEEEEEEEGRFYYSEDDHGDE [KCNA4]: the protein stability index amounted to 5.56 ± 0.14 (treatment: DMSO) and 5.55 ± 0.28 (treatment: MLN4924 1 uM, 8 h). In the same order, the values of DEPGKGGFWRIDPQYAERLLSGAF [FOXJ1] are 2.6 ± 0.25 and 2.73 ± 0.34. For DETLYQEFNGLKKMNPKLKTLLAI [CHIT1], the protein stability index is, setting by setting: (treatment: DMSO) 2.3 ± 0.17; (treatment: MLN4924 1 uM, 8 h) 2.52 ± 0.47. In the same order, the values of DFGDMHSYVRSRKRLREEEAARLF [TRIB1] are 3.5 ± 0.3 and 3.85 ± 0.45. Take DFLIRDSESSPSDFSVSLKASGKN [NCK2]: the protein stability index runs as follows: (treatment: DMSO) 4.25 ± 0.25; (treatment: MLN4924 1 uM, 8 h) 4.4 ± 0.18. Taken in the same sequence, the figures for DFPAHRIVLAACSDYFCAMFTSEL [KLHL12] were 3.08 ± 0.41 and 3.27 ± 0.51.

For DFVNLMAYDFHGSWEKVTGHNSPL [CHIT1], the protein stability index amounted to 1.9 ± 0.23 (treatment: DMSO) and 2.06 ± 0.19 (treatment: MLN4924 1 uM, 8 h). Taken in the same sequence, the figures for DGHRPEWTFYPRFSSNIHTYHVGK [SPATS1] were 2.96 ± 0.077 and 3.01 ± 0.21. Take DGRSLSKLNLCEDGPCHKRRASIC [SCARA5]: the protein stability index came to 3.88 ± 0.33 (treatment: DMSO) and 3.93 ± 0.3 (treatment: MLN4924 1 uM, 8 h). As to DHSQRICEVWACNLDEEMKKIRQV [CNOT7], the protein stability index reads like this: (treatment: DMSO) 3.43 ± 0.2; (treatment: MLN4924 1 uM, 8 h) 3.7 ± 0.18. As for DIDMTDYDDVRRCCSSADICPKCW [PRIM1], the protein stability index is, setting by setting: (treatment: DMSO) 4.8 ± 0.41; (treatment: MLN4924 1 uM, 8 h) 4.84 ± 0.25. In the same order, the values of DLAKLVDQQNPTLGETPENSNLEE [ZNF449] are 5.47 ± 0.16 and 5.32 ± 0.24. Turning to DLAKTGCVDLTITNLLEGAVAFMP [AUP1], the protein stability index is, setting by setting: (treatment: DMSO) 2.21 ± 0.11; (treatment: MLN4924 1 uM, 8 h) 2.05 ± 0.32. For the sequence DLDSRTDSDIPEIPPSSDRTPEIL [CDS1], the protein stability index by setting is: (treatment: DMSO) 5.42 ± 0.21; (treatment: MLN4924 1 uM, 8 h) 5.51 ± 0.21. For the sequence DLEDPLGGLLSYDEGGITKQPPVT [FBF1], the protein stability index reads like this: (treatment: DMSO) 4.41 ± 0.28; (treatment: MLN4924 1 uM, 8 h) 4.35 ± 0.43. In the same order, the values of DLGDIVARSESVLLHMPQPVNPEL [TRIM43] are 3.67 ± 0.31 and 3.8 ± 0.25.

For the sequence DLVDLFDGTSQSTGGSADLFGGFA [CLINT1], the protein stability index was determined as 2.69 ± 0.23 (treatment: DMSO) and 3.2 ± 0.32 (treatment: MLN4924 1 uM, 8 h).

Take DLYKKVKKNSSPPLSLYGQLLWRE [CRY1]: the protein stability index amounted to 2.64 ± 0.39 (treatment: DMSO) and 2.67 ± 0.67 (treatment: MLN4924 1 uM, 8 h). In the case of DLYRDVMLENYSNLVSVGYQAGKP [ZNF649], the protein stability index by setting is: (treatment: DMSO) 2.82 ± 0.53; (treatment: MLN4924 1 uM, 8 h) 2.85 ± 0.23.

For the sequence DNANILLQIDNARLAADDFRTKFE [KRT17], the protein stability index (treatment: DMSO) amounted to 3.27 ± 0.26 and the protein stability index (treatment: MLN4924 1 uM, 8 h) stood at 3.71 ± 0.28. In the same order, the values of DNLLPGMQPSKPQQPSLNTMIQQQ [CLINT1] are 4.38 ± 0.29 and 4.45 ± 0.28. Regarding DNWKSQVEPETRAVIRWMHSFNFV [CPN1], the protein stability index worked out at 2.26 ± 0.52 (treatment: DMSO) and 2.23 ± 0.14 (treatment: MLN4924 1 uM, 8 h). Take DQLAFIEELFSLMVVNRLTEELGC [EID1]: the protein stability index is 3.01 ± 1.2 (treatment: DMSO) and 3.21 ± 0.51 (treatment: MLN4924 1 uM, 8 h). Regarding DQRNPAKESLETPSNGRIDIKQLI [SOAT1], the protein stability index stood at 4.13 ± 0.26 (treatment: DMSO) and 4.24 ± 0.23 (treatment: MLN4924 1 uM, 8 h). In the same order, the values of DRKGYMFDYEYDWIGKQLPTPVGA [CSNK1G3] are 2.55 ± 0.23 and 2.62 ± 0.25. For DRLNEQEGVPSVFNPPPSRPLQVN [FAF2], the protein stability index stood at 4.23 ± 0.28 (treatment: DMSO) and 4.25 ± 0.1 (treatment: MLN4924 1 uM, 8 h).

Turning to DSQEAQSPGHSSAGQEGEDTLRRR [TOR1AIP2], the protein stability index reads like this: (treatment: DMSO) 5.58 ± 0.26; (treatment: MLN4924 1 uM, 8 h) 5.45 ± 0.58. Consider DTKMSFQWRIRNLPYPKDVYSVSV [DPCD], for which the protein stability index came to 2.79 ± 0.52 (treatment: DMSO) and 2.71 ± 0.65 (treatment: MLN4924 1 uM, 8 h). As to DTRVYIWDPHNGDILMEFGHLFPP [WSB1], the protein stability index by setting is: (treatment: DMSO) 2.38 ± 0.98; (treatment: MLN4924 1 uM, 8 h) 2.42 ± 0.44.

Take DWEIQEDSRLMCSSVQKALFEEED [CCDC3]: the protein stability index (treatment: DMSO) turned out to be 5.34 ± 0.25 and the protein stability index (treatment: MLN4924 1 uM, 8 h) was 5.54 ± 0.36. DYGRKAEELLWRKVYYEVIQLIKT [SMG5] registered a protein stability index (treatment: DMSO) of 2.71 ± 0.57. As for DYHLLHPVENIPEIILYWKHSTIF [SLC25A25], the protein stability index is, setting by setting: (treatment: DMSO) 2.71 ± 0.46; (treatment: MLN4924 1 uM, 8 h) 2.76 ± 0.63.

DYLIQATNETNVNIPQMADTLFER [SNAP91]: the protein stability index worked out at 3.64 ± 0.29 (treatment: DMSO) and 3.75 ± 0.2 (treatment: MLN4924 1 uM, 8 h). For the sequence EAAFHPIEEYMVHVEEHFQLLARR [FUT8], the protein stability index (treatment: DMSO) was determined as 3.06 ± 0.29 and the protein stability index (treatment: MLN4924 1 uM, 8 h) came to 3.34 ± 0.36. Take EANGLLPDDKLTLFCEVSVVQDSV [SPOPL]: the protein stability index amounted to 2.88 ± 0.49 (treatment: DMSO) and 3.03 ± 0.66 (treatment: MLN4924 1 uM, 8 h). In the same order, the values of EANSAKVQEDLEAEFQSLFSLLEE [FSD1] are 5.02 ± 0.09 and 5.05 ± 0.12.
